These results are taken from the supplement of paper PMC10724198.

± gives the standard deviation of the averaged measurements.
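Note: PSI is a weighted mean of sequencing reads over stability bins, variants kept only with over 10 reads, mCherry proximal and sfGFP distal, peptide attached via GGGS linker.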

The test system of the series is Saccharomyces cerevisiae. The series can be described thus: protein stability index of tFT-peptide fusion (C-terminal peptide) (PSI (0-1 scale)); higher = more stable (slower turnover). The note with it: genetic background: wild type; temperature: 30 C. The protocol:
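Multiplexed protein stability (MPS) profiling in S. cerevisiae. Random 12-aa peptides (tFT-X12 library) are fused to the C-terminus of a sfGFP-mCherry tandem fluorescent timer, after mCherry and a GGGS linker. Cells are FACS-sorted into 8 mCherry/sfGFP bins and deep-sequenced. The protein stability index (PSI) is the read-weighted bin average, scaled from 0 (unstable) to 1 (stable). Only peptides with >10 reads are reported; cells were grown at 30 °C in SC-His with glucose.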
Sequence CSRTSKKMSIGG displayed a protein stability index of 0.613 ± 0.019.

In turn, CSSLLSSFSLRL displayed a protein stability index of 0.671 ± 0.038.

For the sequence CSSVTEFWWAVF, the protein stability index is 0.766 ± 0.1.

CTMEDLGNCEGI registered a protein stability index of 0.691 ± 0.0082.

For CVAFLAGIVSFL, the protein stability index turned out to be 0.525 ± 0.019.

CVCGRFGGELGV returned a protein stability index of 0.653 ± 0.1.

On to CVCPLPLDSPVS, for which the protein stability index stood at 0.629 ± 0.081.

CVERVGSTPMDS displayed a protein stability index of 0.607 ± 0.053.

CVLLSEVNRTMG: the protein stability index turned out to be 0.646 ± 0.041.

As to CVLVVCRFTGDW, the protein stability index came to 0.5083 ± 0.0038.

Sequence CVQVMTWAMLEC showed a protein stability index of 0.618 ± 0.022.

Consider CVSRLIPGDKHE, for which the protein stability index turned out to be 0.67 ± 0.032.

Regarding CVVRADGVVGIL, the protein stability index was 0.649 ± 0.012.

In the case of CVYGWVGRGWGA, the protein stability index worked out at 0.707 ± 0.079.

As for CWCGLGVWAFGV, the protein stability index was found to be 0.715 ± 0.039.

Consider CWGAGGRTVING, for which the protein stability index came to 0.68 ± 0.034.

Turning to CWGEGGRTVING, the protein stability index was found to be 0.639 ± 0.03.

On to CWSSPSFSLLFP, for which the protein stability index amounted to 0.779 ± 0.028.

CWVNDGCPICGW gave a protein stability index of 0.732 ± 0.072.

As to CYCPPPGMPVPF, the protein stability index came to 0.736 ± 0.095.

Sequence DACPLAEGGGAA gave a protein stability index of 0.717 ± 0.035.

Consider DAFWLRSRRSEG, for which the protein stability index worked out at 0.712 ± 0.0039.

DALGRSNGPPRV: the protein stability index came to 0.673 ± 0.027.

With DAPSPPLTGVSR, the protein stability index amounted to 0.645 ± 0.01.

Regarding DASELLGRPVVL, the protein stability index was found to be 0.748 ± 0.012.

With DAVWTRGGEGVW, the protein stability index came out at 0.718 ± 0.019.

DCFISPRIFRPK showed a protein stability index of 0.721 ± 0.023.

DCKTCVVGCELF showed a protein stability index of 0.697 ± 0.043.

DCKVLIGQYQRE came in with a protein stability index of 0.7 ± 0.0098.

Regarding DCPLPPRYRAPL, the protein stability index is 0.691 ± 0.043.

In the case of DDGRDTLCGRGS, the protein stability index is 0.68 ± 0.042.

In turn, DDRFNVGNLPQG registered a protein stability index of 0.672 ± 0.046.

As to DDSSLLMLNCLE, the protein stability index is 0.71964 ± 0.00048.

On to DEEVGWGRGVGW, for which the protein stability index was 0.72 ± 0.074.

Consider DETCVGSWNSCG, for which the protein stability index was determined as 0.712 ± 0.044.

As for DFFPVSGLANEH, the protein stability index stood at 0.636 ± 0.092.

DFSPSPWQFTCW yielded a protein stability index of 0.692 ± 0.071.

Regarding DFVKVVPNVVDL, the protein stability index was determined as 0.659 ± 0.078.

In turn, DFVLKQIARINL gave a protein stability index of 0.648 ± 0.021.

As for DGALWGTDRGAG, the protein stability index was 0.701 ± 0.064.

DGCRLCRRFIFG showed a protein stability index of 0.669 ± 0.013.

As to DGFGVARGVSWG, the protein stability index came out at 0.752 ± 0.035.

As for DGGGGGGGVAGD, the protein stability index turned out to be 0.708 ± 0.051.

DGGRPFQKLYVA had a protein stability index of 0.663 ± 0.014.

In the case of DGLWIYNINDGH, the protein stability index came to 0.7314 ± 0.0019.

Take DGTICAITYLTS: the protein stability index came out at 0.6653 ± 0.0017.

The sequence DGWVAVGRALGG returned a protein stability index of 0.704 ± 0.028.

In the case of DHNTRGYQTKSR, the protein stability index is 0.667 ± 0.031.

Sequence DIHSSQVPSMFA registered a protein stability index of 0.68 ± 0.076.

DIHVNLHKSRKM came in with a protein stability index of 0.626 ± 0.027.

Take DIIGMPLLMKKK: the protein stability index was 0.693 ± 0.03.

Sequence DIKATRTYNHKV had a protein stability index of 0.68 ± 0.029.

DIKKRQNIKDRK registered a protein stability index of 0.686 ± 0.051.

Sequence DKKKNKDQKEKI gave a protein stability index of 0.731 ± 0.029.

DKKKRRERKDRT had a protein stability index of 0.6746 ± 0.0061.

Consider DKLSSRIPCSPS, for which the protein stability index was 0.679 ± 0.0077.

With DKTPRSHKKTAE, the protein stability index worked out at 0.738 ± 0.022.

In turn, DLAPLSFVHLLL yielded a protein stability index of 0.596 ± 0.037.

For DLFPTLFFIRSR, the protein stability index was determined as 0.689 ± 0.073.

As for DLGLSYCGYAML, the protein stability index came to 0.683 ± 0.064.

The sequence DLGVCCLLGDFG returned a protein stability index of 0.577 ± 0.0072.

Turning to DLPRCPPSPPPS, the protein stability index was determined as 0.713 ± 0.046.

Sequence DLPRLLLSPSLP registered a protein stability index of 0.67 ± 0.058.

The sequence DLRPSLPHPTQP yielded a protein stability index of 0.673 ± 0.037.
